{
  "source": "patent US20240117038A1",
  "key": {"mouse CX3CR1 (mouse)": {"biological_target": "mouse CX3CR1 (mouse) (UniProt Q9Z0D9)", "sequence (Q9Z0D9 whole entry)": "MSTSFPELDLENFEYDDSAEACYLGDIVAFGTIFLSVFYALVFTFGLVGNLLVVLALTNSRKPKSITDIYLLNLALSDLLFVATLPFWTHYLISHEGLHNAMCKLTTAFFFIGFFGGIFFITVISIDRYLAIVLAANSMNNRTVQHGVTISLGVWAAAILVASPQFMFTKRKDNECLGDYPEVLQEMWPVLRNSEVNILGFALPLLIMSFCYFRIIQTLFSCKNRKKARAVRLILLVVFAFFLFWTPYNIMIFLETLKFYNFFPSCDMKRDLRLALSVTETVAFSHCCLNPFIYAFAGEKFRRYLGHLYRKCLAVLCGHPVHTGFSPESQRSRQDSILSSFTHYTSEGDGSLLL", "experiment": "cell-based or functional assay"}, "human CX3CR1 (human)": {"biological_target": "human CX3CR1 (human) (UniProt P49238)", "sequence (P49238 whole entry)": "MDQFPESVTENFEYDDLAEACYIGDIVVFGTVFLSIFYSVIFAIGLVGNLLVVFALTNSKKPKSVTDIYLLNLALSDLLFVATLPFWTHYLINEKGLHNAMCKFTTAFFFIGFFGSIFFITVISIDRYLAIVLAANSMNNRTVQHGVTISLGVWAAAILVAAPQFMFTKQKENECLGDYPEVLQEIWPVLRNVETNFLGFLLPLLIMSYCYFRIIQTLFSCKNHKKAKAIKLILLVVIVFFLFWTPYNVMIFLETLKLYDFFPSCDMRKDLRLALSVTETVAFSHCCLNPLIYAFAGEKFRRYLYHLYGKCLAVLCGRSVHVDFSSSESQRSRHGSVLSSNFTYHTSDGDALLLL", "experiment": "cell-based or functional assay"}},
  "data": [
    {"substance": "mouse CX3CL1 (from UniProt O35188 25-337) (ligand)", "values": [
      {"measurement": "EC50, ERK phosphorylation in CHO K1 mCX3CR1 cells", "setting": "mouse CX3CR1 (mouse)", "result": 23, "unit": "nM"},
      {"measurement": "EC50, ERK phosphorylation in CHO K1 huCX3CR1 cells", "setting": "human CX3CR1 (human)", "result": 73, "unit": "nM"}
    ]}
  ]
}
